Data on 1 substance can be found in publication PMC10914790.

Test in all cases: MST; Clr4 constructs fluorescently labelled (BLUE-NHS), H3KC9me3 nucleosomes added at 8 nM to 2.5 μM; 10 mM Tris–HCl pH 7.5, 150 mM NaCl, 0.5 mM DTT, 0.05% Tween-20; 40% MST power, 80% LED; five runs
For assay [1], the target named is Clr4 CD-deleted construct (S. pombe).
The target in assay [2] is full-length Clr4 (Cryptic loci regulator protein 4), H3K9 methyltransferase (S. pombe) (UniProt O60016).
Assay [3] deals with Clr4 chromodomain construct (S. pombe) (UniProt O60016).

Broadly, the Kd is the equilibrium constant for the complex coming apart. Higher therefore signals weaker binding. Consider “H3KC9me3 nucleosome (H3K9 trimethyl-lysine analog nucleosome) (complex)”, for which the Kd came to 0.422 µM in assay [1], 0.541 µM in assay [2] and 0.31 µM in assay [3].
